Experimental data reported in the supplement of paper PMC10126150.
± gives the standard deviation of the averaged measurements.

test system: ATP; experiment: switch fluorescence ratio, 500 uM ATP over buffer (Cy3 cluster intensity, sum of 5 cycles each) (fold (ratio)); higher = stronger signal-on switching upon ATP binding; sequences stand for … in TCGTCGGCAGCGTCAGATGTGTATAAGAGACAGTTTTTTTTTTTTTTTTTTTTTTTTT…TC; settings: aptamer strand: ATP DNA aptamer (quencher-CACCTGGGGGAGTATTGCGGAGGAAGG + anchor), 100 nM annealed; ATP concentration: 500 uM
Method in brief: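 Imaging in selection buffer was followed by imaging after 15 min with 500 uM ATP at 22 °C, for Cy3-labelled switching-strand clusters annealed to 100 nM quencher-labelled ATP aptamer on a modified Illumina MiSeq flow-cell. Five of these buffer/ATP cycles ran, separated by NaOH stripping and re-annealing. The fluorescence ratio per cluster is summed target-cycle over summed buffer-cycle Cy3 intensity, averaged per switch-domain sequence; clusters outside 100-1000 RFU were removed.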
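Also: ATP exposure 15 min at 22 °C before imaging.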

Sequence | switch fluorescence ratio
GTTTTTTGCT | 0.9809 ± 0.0051
GGATTGGCGT | 1 ± 0.044
TGCTTTGCCT | 1.03 ± 0.013
TACGGATTAG | 1.051 ± 0.0051
GTATAAATGG | 0.978 ± 0.023
GGGTATGCGT | 0.975 ± 0.026
AAACTACTAC | 1.147 ± 0.0017
GCTCGAGTGG | 1.03 ± 0.053
TTTTCTCCGA | 1.2 ± 0.26
GAGTACGTTA | 1.16 ± 0.013
CAATGATGCT | 0.935 ± 0.018
ACTAGTCGGA | 1.03 ± 0.028
TTGGTTAAAT | 1.01 ± 0.026
AAGTTAAGGT | 1.005 ± 0.002
AGATAATTGG | 1.007 ± 0.0061
AAGTAGGTGC | 1.13 ± 0.02
TCCATAATAG | 1.16 ± 0.028
TTATTATGGC | 0.993 ± 0.05
GTCATGCGTG | 0.974 ± 0.044
CGGAAAAAAG | 1.018 ± 0.007
TGAGCGACTT | 1.005 ± 0.0095
ATGAGTGGCT | 0.999 ± 0.054
AGTTGTTACA | 1.01 ± 0.032
TGGGAAATGG | 1 ± 0.024
GGAATGTGCA | 0.987 ± 0.023

Sequence | switch fluorescence ratio
TAATCGCATA | 2.05 ± 1.2
TTTGAGAGAT | 0.991 ± 0.029
GTGTGTTCTT | 1.014 ± 0.008
GGTAAATTGA | 1.04 ± 0.03
AGTTGTAGGG | 1 ± 0.016
TCTCGTAAAT | 1.034 ± 0.01
CTCCGGGCCT | 1.42 ± 0.12
ATTGATTAAC | 1.013 ± 0.0043
TTTCCATTGG | 1.03 ± 0.015
GGCATGGGGG | 0.984 ± 0.017
AATGGTTTTG | 0.9921 ± 0.0034
TTACCGGGGT | 0.995 ± 0.035
TTGCTACAGT | 1.01 ± 0.019
TGCCTACGGG | 1.02 ± 0.028
TTTAAGGAAC | 1.03 ± 0.026
CTCCCGTCCA | 1.28 ± 0.085
AGGGGTAGTG | 0.98 ± 0.019
CCATGGATCA | 0.9992 ± 0.0091
AAACCCTGGG | 1.04 ± 0.029
GGGGAAGTCT | 0.984 ± 0.093
ATGTGGATTG | 1.016 ± 0.009
AAAGGGTGCG | 1.03 ± 0.017
ACAGAGAAAT | 1.03 ± 0.036
TAAAAGAGGT | 0.9962 ± 0.0081
ACCGGGGGCC | 1.02 ± 0.013

Sequence | switch fluorescence ratio
ACTAGAGCCA | 0.982 ± 0.011
GGTACGCG | 0.982 ± 0.027
ATTACTTTGC | 1.05 ± 0.021
TTAGAGGGAG | 1.03 ± 0.042
AATTTGCATG | 0.978 ± 0.013
TTCGTCAATC | 2.17 ± 1.3
GTTGGGATTC | 0.986 ± 0.049
GTGGGTCGGG | 1.006 ± 0.0049
AGGGAAAGCT | 1.12 ± 0.2
GCTATTATTT | 0.9845 ± 0.0027
GACGGCGGGC | 0.989 ± 0.023
TTGGTGTGAC | 1.05 ± 0.065
GAGCTTGCGT | 1.01 ± 0.025
TAAGGGAGGT | 0.996 ± 0.044
CTGGCAAGGT | 1.09 ± 0.031
TGCACAGGCT | 1.119 ± 0.0062
TTTTTTACAG | 1.02 ± 0.011
GAATATTGAG | 0.99 ± 0.019
AATCGGGTTG | 1 ± 0.019
TTTCTGGGGG | 0.984 ± 0.019
ATGCGCGCCG | 0.982 ± 0.037
TCTCGGGGTA | 0.979 ± 0.046
GTTGGGTTCT | 1.03 ± 0.021
GGTGTACGGG | 0.987 ± 0.036
TTTGTTGCTT | 0.989 ± 0.012

Sequence | switch fluorescence ratio
ACACATAGAC | 1.17 ± 0.051
GCGTCAGGGG | 1.03 ± 0.086
GATAAAAGGA | 1.002 ± 0.0063
CTCGCAGGCT | 1.25 ± 0.037
CTGAAGGATC | 1.05 ± 0.035
ATGTGTCCT | 1.016 ± 0.0039
GTAGAGGGGA | 1.02 ± 0.016
TTTTTTACCG | 1.02 ± 0.04
TTTCCGTTTT | 1.01 ± 0.038
TTTGGTCCCT | 0.993 ± 0.016
GAAAATGCAG | 0.999 ± 0.062
CAATGGGCGA | 0.993 ± 0.011
GCTTAGTATA | 1.01 ± 0.019
GCAAAAAAAC | 1.02 ± 0.067
TACGTATGGG | 0.997 ± 0.021
CCTAATTTTA | 0.971 ± 0.043
TTAGGTTCTA | 1.08 ± 0.12
TTCTGAGGTA | 1.01 ± 0.03
ATGATCTCCG | 1.32 ± 0.017
GGGGGGGATG | 0.991 ± 0.029
CTAGATGTGG | 0.983 ± 0.059
TATATGGAGG | 0.956 ± 0.032
GGGCCAGGGG | 1.21 ± 0.067
GGTAGGGCGG | 1.01 ± 0.068
GCTGTATGCA | 0.976 ± 0.012

Sequence | switch fluorescence ratio
TTTTGCCTTG | 0.967 ± 0.043
CTAGTGGCTG | 1.02 ± 0.03
ACAATCTTTA | 0.994 ± 0.03
GCATTTCCCG | 1.06 ± 0.091
TAAGTGCGGG | 0.974 ± 0.0034
TATAAAGAGA | 0.9978 ± 0.0057
CAGGTCGTT | 1.01 ± 0.054
AAATAACCGA | 1.08 ± 0.02
TTTAGTTCGG | 0.998 ± 0.027
GCCGCGGGAA | 1 ± 0.051
GTATAAGTTG | 1.02 ± 0.047
ATTGGATAGG | 1.01 ± 0.012
GCGGACGGGT | 0.969 ± 0.019
TTTCCAAATG | 0.9847 ± 0.0059
TTAGGGATGG | 0.992 ± 0.023
GGGTTAGACG | 1.01 ± 0.011
CGCGGGAACA | 1.022 ± 0.005
CCCGAGTTAT | 1.067 ± 0.01
TTTTTACGTT | 1.03 ± 0.021
GTAGGGGTAA | 0.974 ± 0.036
AATGTGTATG | 0.991 ± 0.033
ATTAGCACGG | 0.997 ± 0.013
GGTGTAGTAT | 0.9759 ± 0.008
GAAAGAGATG | 1.003 ± 0.008
AGGTGAAGCC | 1.01 ± 0.038

Sequence | switch fluorescence ratio
GACAGTAGGG | 1 ± 0.043
AAGGGGATGT | 1.03 ± 0.032
TAGAGAATAT | 0.992 ± 0.026
GGAGAATTTT | 1.04 ± 0.049
ACAACAGGGG | 2.91 ± 0.65
TATTTTATTT | 1 ± 0.018
TCGAAAGCTT | 1.34 ± 0.42
GATTGCTCGT | 0.975 ± 0.028
TGTGATTTAC | 1.05 ± 0.011
GTCGCGGCGA | 0.9664 ± 0.006
GGTTTTATGT | 0.984 ± 0.032
GAAGGCCCGT | 0.991 ± 0.037
CTATACAGCA | 1.06 ± 0.044
AATAAATT | 0.9585 ± 0.0081
GATTGGTACT | 1 ± 0.02
GTTTGGGAAC | 1.02 ± 0.019
GTTTAATGTT | 1.023 ± 0.0022
CTGGAAATTG | 1.03 ± 0.036
AGTGGGGCAG | 0.986 ± 0.0071
TCTAGGTTTT | 1.005 ± 0.0047
ATTTCGTTGC | 1.06 ± 0.058
GCGTCAGGCG | 0.971 ± 0.026
CAAATAAGTG | 0.9842 ± 0.0088
GGGAGCCGAG | 1 ± 0.03
TTAGTTTTTA | 0.991 ± 0.022

Sequence | switch fluorescence ratio
TTGTTAAGAG | 0.986 ± 0.043
GGTTCTAGTG | 0.968 ± 0.025
AGGGATTCGC | 0.997 ± 0.011
CGTTTGTTCG | 1.03 ± 0.071
AAAACGTTTA | 1.01 ± 0.043
GAATTGAGGG | 0.97 ± 0.054
GCGTTCTCGT | 0.989 ± 0.018
ACGGTGTCAC | 0.9774 ± 0.0012
TAGGATTCGA | 0.964 ± 0.016
GAGGTCATTG | 0.9996 ± 0.0018
GTTTTGTGCA | 0.9978 ± 0.0052
ACTATGATAT | 1.018 ± 0.0073
ACGAAAGGTG | 1.58 ± 0.072
CTGTCTGGTG | 1.025 ± 0.0087
TTATCTTGTC | 1.03 ± 0.072
GGTAGCAGTT | 1 ± 0.026
AGACTGGGGG | 0.997 ± 0.033
GTGATGGATG | 0.997 ± 0.057
TGGGTTCTGT | 0.974 ± 0.0099
ACGGAAAACG | 1.023 ± 0.0093
GAGGAAAATA | 0.981 ± 0.011
TTGGTGACGG | 0.986 ± 0.013
TTTATTTTTA | 0.986 ± 0.019
TTTAGAAGTG | 1.005 ± 0.0094
AAAATTTTAT | 0.989 ± 0.026

Sequence | switch fluorescence ratio
TAAGGAGACA | 1.01 ± 0.045
GCCGATAGGG | 0.9975 ± 0.0039
AACGCCGGCC | 1.01 ± 0.057
GAATAGCCCA | 0.9711 ± 0.0012
CAGGTATTGA | 1 ± 0.03
TCAGTGCGGG | 0.98 ± 0.047
CTGACAGCGG | 1.06 ± 0.033
TAGTGTGGGA | 1 ± 0.043
AAAGGGGTCT | 1.01 ± 0.031
CAAAAGGAGT | 0.992 ± 0.034
CGTTGGCGGT | 1.02 ± 0.043
ACGATTTTGC | 1.04 ± 0.033
AGATAGGGCA | 0.994 ± 0.032
ACATAAGGTA | 1.04 ± 0.03
TGATTTGACA | 1.01 ± 0.013
GGTATGAGTG | 0.9737 ± 0.006
CGTGGTCGTC | 0.991 ± 0.03
AATGCAGAGT | 0.983 ± 0.012
TCGTGGCGAG | 1.01 ± 0.028
ACGTTAATGA | 1.121 ± 0.002
GATGTTAGGG | 0.983 ± 0.026
ACGTCCTGCT | 1.07 ± 0.011
TGAGGGGTGC | 1.04 ± 0.029
ACTGTTGGGG | 0.999 ± 0.02
CGCCCCGGCC | 1.06 ± 0.097
